Here are results for one substance from patent US20230357367A1.

Assay in all cases: cell-based or functional assay
Assay [1] addresses spike (SARS-CoV-2, B.1.617.2, Delta) (SARS-CoV-2).
The target of assay [2] is spike (SARS-CoV-2, BQ.1.1) (SARS-CoV-2).
Assay [3] has as its target spike (SARS-CoV-2, XBB.1.5) (SARS-CoV-2).
Assay [4] addresses spike (SARS-CoV-2, B.1.617.2, Delta) (SARS-CoV-2). This is another data set of the same source.
The target of assay [5] is spike (SARS-CoV-2, BQ.1.1) (SARS-CoV-2). This is another data set of the same source.
Assay [6] has as its target spike (SARS-CoV-2, XBB.1.5) (SARS-CoV-2). This is another data set of the same source.
Assay [7] has as its target spike (SARS-CoV-2, B.1.617.2, Delta) (SARS-CoV-2). The source holds these as a separate data set.
In assay [8] the target is spike (SARS-CoV-2, BQ.1.1) (SARS-CoV-2). The source holds these as a separate data set.
Assay [9] has as its target spike (SARS-CoV-2, XBB.1.5) (SARS-CoV-2). The source holds these as a separate data set.
For assay [10], the target named is spike (SARS-CoV-2, BA.2) (SARS-CoV-2).
For assay [11], the target named is spike (SARS-CoV-2, B.1.617.2, Delta) (SARS-CoV-2). This is another data set of the same source.
The target in assay [12] is spike (SARS-CoV-2, BQ.1.1) (SARS-CoV-2). This is another data set of the same source.
The target of assay [13] is spike (SARS-CoV-2, XBB.1.5) (SARS-CoV-2). The source holds these as a separate data set.

For sotrovimab VH/VL-huIgG1-LS (antibody), the figures for the EC50, pseudovirus neutralization, Vero E6, with isotype in assay [1], in assay [2] and in assay [3] were 7.9 ng/mL, 1.2 µg/mL and 0.17 µg/mL, respectively. The Emax, pseudovirus neutralization, Vero E6, with isotype (% neutralization) in assay [4] is 96.9; in [5], 71.9; in [6], 93.4. Further, the results for the EC80, pseudovirus neutralization, Vero E6, with isotype in [7], in assay [8] and in assay [9] were 0.042 µg/mL, 4.4 µg/mL and 0.68 µg/mL, respectively. The substance also gave an EC50, pseudovirus neutralization, Vero E6 in [10] of 0.851 µg/mL. Moreover, the EC90, pseudovirus neutralization, Vero E6, with isotype in assay [11] is 0.11 µg/mL; in [12], 9.6 µg/mL; in assay [13], 1.5 µg/mL.
